Results: patent US20190112393 (published 2019)
Residue numbers refer to the chain shown, from its start. Read-outs that look alike come from different tables or passages of the source.

How the values were obtained:
[1] = target: T1, human FcγRIIa type H (human, UniProt P12318); experiment: SPR
T1 chain: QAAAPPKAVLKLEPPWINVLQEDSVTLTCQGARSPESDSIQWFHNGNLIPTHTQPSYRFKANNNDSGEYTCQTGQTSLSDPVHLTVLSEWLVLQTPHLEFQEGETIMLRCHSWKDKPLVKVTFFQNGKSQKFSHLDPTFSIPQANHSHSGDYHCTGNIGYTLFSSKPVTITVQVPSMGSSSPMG

[2] = target: T2, human FcγRIa (human, UniProt P12314); experiment: SPR
T2 chain: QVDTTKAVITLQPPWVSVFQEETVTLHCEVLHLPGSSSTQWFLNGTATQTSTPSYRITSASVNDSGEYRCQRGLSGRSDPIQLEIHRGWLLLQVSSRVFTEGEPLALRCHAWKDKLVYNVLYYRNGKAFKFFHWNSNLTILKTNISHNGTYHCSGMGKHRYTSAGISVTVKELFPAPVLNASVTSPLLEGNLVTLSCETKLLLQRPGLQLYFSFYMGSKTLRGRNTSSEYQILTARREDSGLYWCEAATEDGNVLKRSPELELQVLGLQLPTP

[3] = target: T2, human FcγRIa; experiment: SPR
[4] = target: T3, human FcγRIIb (human, UniProt P31994); experiment: SPR
T3 chain: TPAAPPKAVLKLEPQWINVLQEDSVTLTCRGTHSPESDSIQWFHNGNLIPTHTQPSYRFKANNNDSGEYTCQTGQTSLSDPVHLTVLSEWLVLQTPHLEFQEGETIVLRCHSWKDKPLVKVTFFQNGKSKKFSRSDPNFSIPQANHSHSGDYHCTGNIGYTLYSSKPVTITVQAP

[5] = target: T2, human FcγRIa; experiment: SPR
[6] = target: human IgA (human); experiment: SPR, pH 5.8, 3 uM Ca, 37C
Chain of human IgA (human) (VH, as listed by the source): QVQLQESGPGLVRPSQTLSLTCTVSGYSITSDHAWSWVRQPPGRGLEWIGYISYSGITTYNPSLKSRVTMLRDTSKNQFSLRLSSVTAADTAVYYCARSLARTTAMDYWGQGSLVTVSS

[7] = target: human IgA (human); experiment: SPR, pH 7.4, 3 uM Ca, 37C
[8] = target: human IgA (human); experiment: SPR, pH 5.8, 1.2 mM Ca, 37C
[9] = target: human IgA (human); experiment: SPR, pH 7.4, 1.2 mM Ca, 37C
[10] = target: T4, human IL-6 receptor (human, UniProt P08887); experiment: SPR, pH 7.4, 3 uM Ca, 37C
T4 chain: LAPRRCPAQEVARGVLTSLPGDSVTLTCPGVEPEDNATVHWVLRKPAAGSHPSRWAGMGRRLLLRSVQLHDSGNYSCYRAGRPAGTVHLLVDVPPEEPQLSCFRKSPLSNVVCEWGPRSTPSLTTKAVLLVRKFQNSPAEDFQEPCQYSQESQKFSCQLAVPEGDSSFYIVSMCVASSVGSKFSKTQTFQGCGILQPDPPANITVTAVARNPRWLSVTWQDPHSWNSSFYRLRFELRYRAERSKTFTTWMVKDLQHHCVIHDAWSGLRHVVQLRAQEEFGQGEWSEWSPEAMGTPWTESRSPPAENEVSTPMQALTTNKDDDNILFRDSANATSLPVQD

[11] = target: human IgE (human); experiment: SPR, pH 5.8, 3 uM Ca, 37C
[12] = target: human IgE (human); experiment: SPR, pH 5.8, 1.2 mM Ca, 37C
[13] = target: human IgE (human); experiment: SPR, pH 7.4, 1.2 mM Ca, 37C

B1: BP438 (antibody)
chain 1: QVQLQESGPGLVKPSETLSLTCAVSGHSISHDHAWSWVRQPPGEGLEWIGFISYSGITNYNPSLQGRVTISRDNSKNTLYLQMNSLRAEDTAVYYCARSLARTTAMDYWGEGTLVTVSSASTKGPSVFPLAPSSKSTSGGTAALGCLVKDYFPEPVTVSWNSGALTSGVHTFPAVLQSSGLYSLSSVVTVPSSSLGTQTYICNVNHKPSNTKVDKKVEPKSCDKTHTCPPCPAPDLLGDDSVFLFPPKPKDTLMISRTPEVTCVVVDVAEEDGEVKFNWYVDGVEVHNAKTKPREEQYNSTYRVVSVLTVLHQDWLNGKEYKCKVSNKALPRPTEKTISKAKGQPREPQVYTLPPSRDELTKNQVSLTCLVKGFYPSDIAVEWESNGQPENNYKTTPPVLDSDGSFFLYSKLTVDKSRWQQGNVFSCSVMHEALHNHYTQESLSLSP
chain 2: not shown
Work on B1 yielded a Kd [1] of 1600 nM.

B2: BP267 (antibody)
chain 1: B1 chain 1 with A269S, R332A, T334I
chain 2: not shown
B2 showed a Kd [2] of 4 nM.

B3: BP447 (antibody)
chain 1: B1 chain 1 with T334I, P398A
chain 2: not shown
In the case of B3, the Kd [3] is reported as 0.9 nM.

B4: BP468 (antibody)
chain 1: B1 chain 1 with A269S, E270D, Y298D, T334I, K336T
chain 2: not shown
B4 showed a Kd [4] of 40 nM.

B5: BP384 (antibody)
chain 1: B1 chain 1 with A269S, E270D, Y298D, T334I, K336R
chain 2: not shown
B5 was tested, and the Kd [5] was 3 nM.

B6: BP456 (antibody)
chain 1: B1 chain 1 with T334I, P398M
chain 2: not shown
For B6, the Kd [3] was 0.6 nM.

B7: GA2-IgG1 (antibody, V domains shown)
VH: QVQLVQSGAEVKKPGSSVKVSCKASGGTFSSYAISWVRQAPGQGLEWMGGIIPIFGTANYAQKFQGRVTITADESTSTAYMELSSLRSEDTAVYYCARPRWETAISSDAFDIWGQGTMVTVSS
VL: DIQMTQSPSSLSASVGDRVTITCRASQSISDDLNWYQQKPGKAPKLLIYEASNLQSGVPSRFSGSGSGTDFTLTISSLQPEDFATYYCQQHSSSPLTFGQGTKVEIKR
B7 gave a Kd [6] of 5000 nM, a Kd [7] of 6700 nM and a Kd [8] of 4000 nM. It also gave a Kd [9] of 39 nM.

B8: FH4-IgG1 (antibody, V domains shown)
VH: QVQLVQSGAEVKKPGSSVKVSCKASGGTFSSYAISWVRQAPGQGLEWMGGIIPIFGTANYAQKFQGRVTITADESTSTAYMELSSLRSEDTAVYYCARERDYYDSSGYYDAFDIWGQGTMVTVSS
VL: ETTVTQSPSFLSASVGDRVTITCITTTDIDDDMNWFQQEPGKAPKLLISEGNILRPGVPSRFSSSGYGTDFTLTISKLQPEDFATYYCLQSDNLPFTFGQGTKLEIKR
B8 was tested, and the Kd [10] was over 34000 nM.

B9: 278-IgG1 (clone 278) (antibody, V domains shown)
VH: QSLEESGGRLVTPGTPLTLTCTASGFSLSSYHMSWVRQAPGKGLEWIGVINSAGNTYYASWAKGRFTVSKTSTTVDLNLTSLTTEDTATYFCARYVFSSGSHDIWGPGTLVTVSS
VL: AYDMTQTPASVEVAVGGTVTIKCQASQSIGSWLAWYQQKPGQPPKELIYGTSTLESGVPSRFIGSGSGTEFTLTISGVECADAATYYCQQGYSEDNIDNAFGGGTEVVVKR
B9 gave a Kd [11] of 3900 nM, a Kd [12] of 2000 nM and a Kd [13] of 2.4 nM.

B10: 6RL#9-IgG1 (antibody, V domains shown)
VH: QVQLVQSGAEVKKPGASVKVSCKASGYTFTSYYMHWVRQAPGQGLEWMGIINPSGGSTSYAQKFQGRVTMTRDTSTSTVYMELSSLRSEDTAVYYCARDDPGGGEYYFDYWGQGTLVTVSS
VL: QSVLTQPPSVSGAPGQRVTISCTGSRSNMGAGYDVHWYQLLPGAAPKLLISHNTHRPSGVPDRFSGSKSGASASLAITGLQAEDEADYYCQSHDSSLSAVVFGGGTKLTVLS
B10 was tested, and the Kd [10] was over 31000 nM.
